B1: Gal4-Cdc27-273-352 (wild type) [S. pombe] / LexA-Pol1-278-527 [S. pombe] (parent complex)
chain 1: TEAKSAAPDEPQEIIKSVSGGKRRGKRKVKKYATTKDEEGFLVTKEEEVWESFSEDENISTGTSNVVRNKPTTVNIATKK
chain 2: PLSPMTPLSSELDVSAFSEINSKIKNVDVPASSYSSPISKVSPSDVTEEDGSLFFFWMDYTEMYGSLCLFGKVYDKATKQYVSCFLKVDGIMRSLYFLPRPSSSSVSEDSIAAQTKDVYDEVANLLSKRGVKEWKSRVSKYKYAFELEDVPRTADYLEVIYSYSYPALPTDLTGSSFSHVFGTNTALFEQFVLSRRVMGPCWLKIQQPNFDAVKNASWCRVEIGCSSPQNISVSFEKNEITSKTPPMTVM

Variants of: B1
Assay: yeast two-hybrid, β-galactosidase activity in liquid cultures; parent: 150; read off a plot

| response | Variant |
| --- | --- |
| ~46 Miller units | chain 1 K22A, chain 1 R23A, chain 1 R24A |
| ~35 Miller units | chain 1 K30A, chain 1 K31A |

Source: publication PMC545490, “Mapping and mutation of the conserved DNA polymerase interaction motif (DPIM) located in the C-terminal domain of fission yeast DNA polymerase δ subunit Cdc27” (BMC Molecular Biology, 2004)
